B1: CAMK2B (parent)
chain: YQQIKAGAYDFPSPEWDTVTPEAK
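Note: lentivirally expressed fusions sorted by FACS into six bins by GFP to DsRed ratio, PSI derived from sequencing read proportions per bin multiplied by bin number.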

Variants of: B1
Assay: protein stability index of a GFP-peptide fusion (GPS, HEK-293T) (PSI 1-6); higher = more stable
Details: c terminus: a fixed tail appended
With E15M the protein stability index was 2.77. For E15K, the protein stability index was 2.88. In the case of E15P, the protein stability index is reported as 2.77. With E15L the protein stability index was 2.52. E15N gave a protein stability index of 3.41. E15R gave a protein stability index of 2.88. Variant E15T has a protein stability index of 2.67. With E15W the protein stability index was 2.21. E15S showed a protein stability index of 3.39. With E15I the protein stability index was 2.53. In the case of E15V, the protein stability index is reported as 2.55. E15Y gave a protein stability index of 1.99. Variant E15Q has a protein stability index of 3.44. For A23G, the protein stability index was 3.94. For A23F, the protein stability index was 3.28. For A23N, the protein stability index was 3.97. For A23D, the protein stability index was 4.36. Work on A23R yielded a protein stability index of 3.69. For A23L, the protein stability index was 2.81. A23E showed a protein stability index of 4.05. A23C showed a protein stability index of 2.98. A23W gave a protein stability index of 3.25. Work on A23S yielded a protein stability index of 3.86. Variant A23T has a protein stability index of 3.74. In the case of A23V, the protein stability index is reported as 3.27. In the case of A23Y, the protein stability index is reported as 3.43. A23H gave a protein stability index of 3.92. With A23Q the protein stability index was 4.06. Work on A23P yielded a protein stability index of 3.48. With A23I the protein stability index was 3.28. Work on A23M yielded a protein stability index of 3.28. With A23K the protein stability index was 3.82. With P21C the protein stability index was 3.29. In the case of P21D, the protein stability index is reported as 4.05. For P21R, the protein stability index was 3.2. With P21G the protein stability index was 3.65. With P21Y the protein stability index was 3.08. For P21A, the protein stability index was 3.44. Variant P21E has a protein stability index of 4.3. P21S showed a protein stability index of 3.62. P21T showed a protein stability index of 3.6. Variant P21I has a protein stability index of 3. In the case of P21N, the protein stability index is reported as 3.78. For P21K, the protein stability index was 3.76. With P21W the protein stability index was 2.53. With P21Q the protein stability index was 3.91. For P21V, the protein stability index was 3.42. In the case of P21L, the protein stability index is reported as 3.28. Variant P21M has a protein stability index of 3.31. P21F showed a protein stability index of 2.78. P21H gave a protein stability index of 3.42. For T18Q, the protein stability index was 4.03. Work on T18N yielded a protein stability index of 3.69. T18P gave a protein stability index of 3.82. Work on T18G yielded a protein stability index of 3.56. In the case of T18R, the protein stability index is reported as 3.33. T18W gave a protein stability index of 1.85. T18Y gave a protein stability index of 2.79. T18K gave a protein stability index of 3.87. For T18I, the protein stability index was 3.06. For T18M, the protein stability index was 3.24. Work on T18H yielded a protein stability index of 3.63. With T18A the protein stability index was 3.69. T18E showed a protein stability index of 4.27. Work on T18D yielded a protein stability index of 4.25. T18F gave a protein stability index of 3.09. Work on T18V yielded a protein stability index of 3.1. Work on T18C yielded a protein stability index of 3.37. With T18L the protein stability index was 3.35. Variant T18S has a protein stability index of 3.88. Work on D17T yielded a protein stability index of 2.84. For D17I, the protein stability index was 2.76. Work on D17C yielded a protein stability index of 2.34. In the case of D17W, the protein stability index is reported as 2. Variant D17H has a protein stability index of 2.85. D17P showed a protein stability index of 3.27. For D17Y, the protein stability index was 2.88. Work on D17S yielded a protein stability index of 2.77. D17R gave a protein stability index of 2.57. For D17E, the protein stability index was 4.15. With D17K the protein stability index was 2.69. Variant D17L has a protein stability index of 2.51. In the case of D17M, the protein stability index is reported as 2.6. Variant D17N has a protein stability index of 3.15. For D17V, the protein stability index was 2.3. With D17A the protein stability index was 3.25. With D17Q the protein stability index was 3.17. Work on D17G yielded a protein stability index of 2.69. In the case of D17F, the protein stability index is reported as 2.07. Work on T20I yielded a protein stability index of 3.16. Work on T20Q yielded a protein stability index of 3.34. T20L showed a protein stability index of 3.15. For T20P, the protein stability index was 3.18. Work on T20G yielded a protein stability index of 3.7. Work on T20D yielded a protein stability index of 4.31. Work on T20V yielded a protein stability index of 3.66. In the case of T20R, the protein stability index is reported as 3.47. Variant T20M has a protein stability index of 3.16. In the case of T20W, the protein stability index is reported as 2.46. T20K showed a protein stability index of 3.41. With T20A the protein stability index was 3.48. Work on T20H yielded a protein stability index of 3.86. T20C gave a protein stability index of 3.51. For T20F, the protein stability index was 3.03. T20Y showed a protein stability index of 3.06. T20E showed a protein stability index of 3.93. Work on T20N yielded a protein stability index of 3.91. Variant T20S has a protein stability index of 3.74. With W16T the protein stability index was 4.39. Variant W16I has a protein stability index of 4.2. For W16Q, the protein stability index was 4.28. Variant W16F has a protein stability index of 4.16. Work on W16P yielded a protein stability index of 4.64. W16V gave a protein stability index of 4.2. W16K showed a protein stability index of 3.45. With W16G the protein stability index was 4.35. W16C gave a protein stability index of 4.18. In the case of W16A, the protein stability index is reported as 4.07. Work on W16R yielded a protein stability index of 3.54. With W16Y the protein stability index was 3.53. W16L showed a protein stability index of 4.36. Work on W16E yielded a protein stability index of 4.46. W16H gave a protein stability index of 4.35. W16S showed a protein stability index of 4.58. W16M gave a protein stability index of 4.31. Work on W16D yielded a protein stability index of 4.79. For W16N, the protein stability index was 4.55. E22I gave a protein stability index of 3.05. Variant E22N has a protein stability index of 3.41. In the case of E22M, the protein stability index is reported as 2.63. Variant E22S has a protein stability index of 2.97. Work on E22Q yielded a protein stability index of 2.67. In the case of E22W, the protein stability index is reported as 2.08. E22F showed a protein stability index of 2.3. Variant E22C has a protein stability index of 2.82. For E22Y, the protein stability index was 2.46. In the case of E22A, the protein stability index is reported as 2.9. Work on E22V yielded a protein stability index of 2.82. In the case of E22R, the protein stability index is reported as 2.91. Variant E22L has a protein stability index of 2.98. E22T gave a protein stability index of 3.05. With E22K the protein stability index was 2.93. E22H showed a protein stability index of 2.98. Work on E22G yielded a protein stability index of 3.27. E22P gave a protein stability index of 2.93. In the case of E22D, the protein stability index is reported as 3.89. For K24A, the protein stability index was 3.78. For K24C, the protein stability index was 3.38. Work on V19N yielded a protein stability index of 3.97. With V19T the protein stability index was 3.96. With V19S the protein stability index was 3.59. V19I showed a protein stability index of 3.79. Work on V19H yielded a protein stability index of 4.01. With V19P the protein stability index was 3.69. V19E showed a protein stability index of 3.8. V19L gave a protein stability index of 3.53. With V19Q the protein stability index was 4.01. In the case of V19Y, the protein stability index is reported as 2.16. With V19G the protein stability index was 3.92. For V19M, the protein stability index was 3.95. V19K showed a protein stability index of 3.66. Variant V19F has a protein stability index of 1.97. With V19C the protein stability index was 3.82. With V19R the protein stability index was 2.99. With V19A the protein stability index was 3.48. With V19W the protein stability index was 2.79. V19D gave a protein stability index of 4.23.
